The target of the series is mLANA DBD (Murine gammaherpesvirus 68 (MHV-68), UniProt O41974 124-314). Briefly: SAXS; linear octamer model, no DNA bending. The settings on record: protein: recombinant; tags: GST-6xHis tag (pET49b) removed by 3C protease; chain copies: 2.

B1: mLBS1-2 (dsDNA)
DNA 1: GCCATGCGCCCGCGCCTGGGGCGCCACGCGGCGCGCCCTGGAGACCCGGG
DNA 2: CCCGGGTCTCCAGGGCGCGCCGCGTGGCGCCCCAGGCGCGGGCGCATGGC
As to B1, the binding result was “binds”.

Source of the values: publication PMC4787769.
